Legend:
[1] = substrate: O=C(O)CCCC(=O)C(=O)O; test: purified protein; type: biochemical, Thermoactinomyces intermedius; conditions: reductive amination, Tris-NH4Cl pH 8.0, 1 mM NADH, 37°C (general assay)
[2] = substrate: O=C(O)C(=O)Cc1ccccc1; test: purified protein; type: biochemical, Thermoactinomyces intermedius; conditions: reductive amination, Tris-NH4Cl pH 8.0, 1 mM NADH, 37°C (general assay)
[3] = mutant called only 'mutated TiPDH' at the number, A135R by b37-b38 (G114R and double mutant inactive)

Protein | Km [1] | kcat [1] | Km ([2]; natural substrate) | kcat ([2]; natural substrate) | Km [1, 3] | kcat [1, 3] | Km [2] | kcat [2]
TiPDH (phenylalanine dehydrogenase) (Thermoactinomyces intermedius) (protein, His-tagged, pET-Duet1, E. coli BL21(DE3), Ni-NTA purified) MRDVFEMMDRYGHEQVIFCRHPQTGLKAIIALHNTTAGPALGGCRMIPYASTDEALEDVLRLSKGMTYKCSLADVDFGGGKMVIIGDPKKDKSPELFRVIGRFVGGLNGRFYTGTDMGTNPEDFVHAARESKSFAGLPKSYGGKGDTSIPTALGVFHGMRATARFLWGTDQLKGRVVAIQGVGKVGERLLQLLVEVGAYCKIADIDSVRCEQLKEKYGDKVQLVDVNRIHKESCDIFSPCAKGGVVNDDTIDEFRCLAIVGSANNQLVEDRHGALLQKRSICYAPDYLVNAGGLIQVADELEGFHEERVLAKTEAIYDMVLDIFHRAKNENITTCEAADRIVMERLKKLTDIRRILLEDPRNSARR | 1.771 µM | 0.00513 s⁻¹ | 0.66 µM | 0.3715 s⁻¹ | – | – | – | –
TiPDH (phenylalanine dehydrogenase) (Thermoactinomyces intermedius; A135R) (protein, His-tagged, pET-Duet1, E. coli BL21(DE3), Ni-NTA purified) MRDVFEMMDRYGHEQVIFCRHPQTGLKAIIALHNTTAGPALGGCRMIPYASTDEALEDVLRLSKGMTYKCSLADVDFGGGKMVIIGDPKKDKSPELFRVIGRFVGGLNGRFYTGTDMGTNPEDFVHAARESKSFRGLPKSYGGKGDTSIPTALGVFHGMRATARFLWGTDQLKGRVVAIQGVGKVGERLLQLLVEVGAYCKIADIDSVRCEQLKEKYGDKVQLVDVNRIHKESCDIFSPCAKGGVVNDDTIDEFRCLAIVGSANNQLVEDRHGALLQKRSICYAPDYLVNAGGLIQVADELEGFHEERVLAKTEAIYDMVLDIFHRAKNENITTCEAADRIVMERLKKLTDIRRILLEDPRNSARR | – | – | – | – | 7.518 µM | 0.0228 s⁻¹ | 1.2 µM | 0.4307 s⁻¹

Reference: PMC8967036, “Engineering of phenylalanine dehydrogenase from Thermoactinomyces intermedius for the production of a novel homoglutamate” (PLoS ONE, 2022)
